# Entries after “also recorded” stand apart in the source; their conditions may differ.
# B1: GST-R8: GST-tagged talin R8, amino acids 1,453–1,580 (protein)
# chain: NSQAGQQGLVEPTQFARANQAIQMACQSLGEPGCTQAQVLSAATIVAKHTSALCNSCRLASARTANPTAKRQFVQSAKEVANSTANLVKTIKALDGDFTEENRAQCRAATAPLLEAVDNLSAFASNPE
# modifications: left off: GST, end not stated, kept
# Legend:
# GFP-DLC1 = assay: GST pull-down of GFP-DLC1 in A549 cells; assay type: cell-based; settings: A549 cell extracts, anti-DLC1 immunoblot, listed as wild-type GST-R8
# From the text: However, as talin R8 interacts with RIAM ([Goult et al., 2013b]) and paxillin (shown here) in addition to DLC1, we used several approaches to evaluate whether binding of talin R8 to endogenous RIAM or paxillin might have contributed to the observed results. For RIAM, the level of expression in the cell lines used here varied from very low to undetectable. To detect RIAM protein in any of the cell extracts, we had to use an anti-RIAM immunoprecipitation step followed by anti-RIAM immunoblotting. Using these conditions, endogenous RIAM was detected in A549 and H358 cells, but not in 293T cells (Figure S5A).
# Figure S5, related to figure 6. […]
# form a detectable complex with GST-talin R8.
# (A) The expression of endogenous RIAM in cell lines. Cell extracts were subjected to immunoprecipitation followed by immunoblotting with anti-RIAM antibody.
# (B) A complex between GST-talin R8 and endogenous RIAM is undetectable in A549 cells.
# A549 cells were co-transfected with GFP-DLC1 and the GST constructs indicated. Cell extracts were subject to a glutathione bead pull down assay followed by immunoblotting with anti-GST and anti-RIAM antibodies on the same membrane (left). No complex between GST-talin R8 and RIAM could be detected. Under the same conditions, wild-type GST-R8 pulled-down the co-transfected GFP-DLC1; the immunoblot with anti-GST and anti-DLC1 on the same membrane is shown (right). […]
# endogenous paxillin = assay: GST pull-down of endogenous paxillin in A549 and H358 cells; assay type: cell-based, human; settings: anti-paxillin immunoblot
# From the text: To investigate whether the biological effects of GST-R8 might be partly mediated via paxillin, we first confirmed that endogenous paxillin is expressed in cell lines A549, H358, and 293T (Figure S6A). […] As a positive control, HEK293 cells were co-transfected with a paxillin-DDK construct (OriGene) and GST-R8 (wild-type, R1544E and 2E mutants), followed by a GST pull-down assay.
# Figure S6, related to figure 5. Binding of GST-talin R8 to endogenous paxillin is undetectable in A549 and H358 cells.
# (A) The expression of endogenous paxillin in cell lines. Cell extracts were assayed by immunoblotting with anti-paxillin antibody.
# (B) A complex of GST-talin R8 with endogenous paxillin is undetectable in A549 (top) and H358 (bottom) cells. Cells were transfected with the GST constructs indicated, and cell extracts subjected to a glutathione bead pull down assay followed by immunoblotting with anti-GST and anti-paxillin antibodies on the same membrane.
# (C) Wild-type GST-talin R8 forms a complex with transfected paxillin in 293T cells. […]
# G418 colony growth, soft agar growth and cell migration assays - As described previously (Qian et al., 2009), transfected A549 cells were counted, and equal numbers of cells were seeded in […]
molecule,measurement,setting,value
B1,binding of GFP-DLC1,GFP-DLC1,pulled-down; also recorded: did bind GFP-DLC1
same,complex with endogenous paxillin,endogenous paxillin,insufficient to detect binding
same,complex with endogenous paxillin,endogenous paxillin; listed as GST-talin R8,undetectable

# Source: article PMC4938799, “LD Motif Recognition by Talin: Structure of the Talin-DLC1 Complex” (Structure(London, England:1993), 2016)
